Tests used:
His-tagged human PD1 = His-tagged human PD1 (Homo sapiens, UniProt Q15116); assay: Bio-Layer Interferometry (BLI) binding kinetics to PD-1 (Example 6); settings: AHC sensors, analyte His-tagged human PD1
Description: Based on Bio-Layer Interferometry (BLI), Octet® BLI systems enable real-time, label-free analysis for the determination of kinetics and affinity of a ligands to its receptor. Here anti-human IgG FC Capture (AHC) sensors are loaded with the test items (ICs). Sensors are first dipped into a kinetic buffer for baseline measurement, then into an analyte solution, here human PD1, to allow association and again into a buffer solution where the analyte is allowed to come off the ligand (dissociation). Several concentrations of analyte are run in parallel and enable the calculation of affinity parameters: Ka, Kd, KD.
Typically, first, the sensors are regenerated by 3 cycles of dipping into 10 mM glycine solution at pH=2 for 20 seconds, followed by 20 second kinetics buffer and a final 60 seconds in kinetics buffer to establish the initial signal (baseline). Second, the loading column will contain the ligand, here the unmodified PD-1 antibodies and of IL-18 polypeptide conjugated PD-1 antibody, at a fixed concentration determined in the loading scout experiment (20 ug/mL). Then another wash/baseline step allows non immobilized proteins to be washed away. […] After acquisition, the data is analyzed with Data Analysis Studio software (Sartorius). […] Group fitting is then applied to the data series and kinetics parameters are calculated.

NK92 cells = molecular target: T1, NK92 cells (Homo sapiens, UniProt O95256+Q13478); assay: IFN gamma secretion assay in NK92 cells (Example 10); format: cell-based; settings: 1 ng/ml IL-12, 16-20 h, read-out: EC50 IFNγ secretion NK92 assay
T1 sequence (Q13478 19-541): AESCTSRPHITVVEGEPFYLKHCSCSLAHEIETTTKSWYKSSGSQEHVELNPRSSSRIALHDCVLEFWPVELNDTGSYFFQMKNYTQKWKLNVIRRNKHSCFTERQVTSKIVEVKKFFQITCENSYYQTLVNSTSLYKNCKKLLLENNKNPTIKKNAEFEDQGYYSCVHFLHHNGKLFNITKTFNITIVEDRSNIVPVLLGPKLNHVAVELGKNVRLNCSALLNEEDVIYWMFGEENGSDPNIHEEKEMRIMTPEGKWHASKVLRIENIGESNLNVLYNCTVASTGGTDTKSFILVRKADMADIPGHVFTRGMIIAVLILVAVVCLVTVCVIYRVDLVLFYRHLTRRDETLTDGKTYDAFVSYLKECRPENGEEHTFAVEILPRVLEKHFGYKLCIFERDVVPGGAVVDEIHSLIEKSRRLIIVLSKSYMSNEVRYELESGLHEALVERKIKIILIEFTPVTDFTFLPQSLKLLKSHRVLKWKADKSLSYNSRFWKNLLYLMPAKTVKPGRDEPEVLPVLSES
T1 sequence (O95256 20-599): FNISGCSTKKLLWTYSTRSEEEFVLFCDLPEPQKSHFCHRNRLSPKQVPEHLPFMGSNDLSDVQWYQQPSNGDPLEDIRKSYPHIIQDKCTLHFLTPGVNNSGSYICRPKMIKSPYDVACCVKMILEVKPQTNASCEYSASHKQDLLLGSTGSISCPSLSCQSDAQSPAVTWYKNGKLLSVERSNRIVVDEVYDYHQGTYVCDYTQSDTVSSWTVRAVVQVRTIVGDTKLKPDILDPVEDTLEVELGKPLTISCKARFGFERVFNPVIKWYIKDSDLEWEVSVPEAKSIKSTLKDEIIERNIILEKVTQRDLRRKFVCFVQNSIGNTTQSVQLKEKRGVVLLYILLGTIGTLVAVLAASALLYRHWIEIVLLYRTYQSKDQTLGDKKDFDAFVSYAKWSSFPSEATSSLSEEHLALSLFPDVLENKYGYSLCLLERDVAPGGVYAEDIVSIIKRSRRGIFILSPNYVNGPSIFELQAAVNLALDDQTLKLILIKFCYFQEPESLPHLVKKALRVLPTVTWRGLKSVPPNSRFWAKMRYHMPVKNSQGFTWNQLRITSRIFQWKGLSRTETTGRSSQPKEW
Experimental: The IFNγ-secretion stimulating activity of the unconjugated IL-18 variants and corresponding IL-18 immunocytokines was evaluated on NK92 cell line. The NIK cell line NK-92 derived from a patient with lymphoma (ATCC, Cat #CRL-2407) was cultured in aMIEM medium supplemented with 12.5% FCS, 12.5% horse serum (HS), 50 uM B-mercaptoEthanol, and 2 ng/ml of recombinant Human Interleukin-2 (IL-2).
On the day of experiment, cells were harvested and washed with aNMEM medium without IL-2 and resuspended in medium (w/o IL-2) containing 1 ng/ml of recombinant human Interleukin-12 (Sinofliologicals, Cat #CT011-H08H). After counting, cells were seeded at 100 000 cells/well in a 384 well titer plate and incubated at 37° C./5% CO2. […]
After 16-20 h incubation at 37° C./5% CO2, 5 μl of supernatant were carefully transferred to a 384 microwells OPTIPlate (Perkin Elmer; Cat #6007270) and Interferon-gamma (IFNγ) levels measured using the Human IFNγ AlphaLISA Assay Kit (Perkin Elmer, Cat #AL217C). […] AlphaLisa signal was then measured on an Enspire plate reader (Perkin Elmer) using 680 and 615 nm as excitation and emission wavelengths respectively. Half maximal effective concentration (EC50) was calculated based on a variable slope, four parameter analysis using GraphPad PRISM software.

His-tagged human PD1, sequence (Q15116 25-288): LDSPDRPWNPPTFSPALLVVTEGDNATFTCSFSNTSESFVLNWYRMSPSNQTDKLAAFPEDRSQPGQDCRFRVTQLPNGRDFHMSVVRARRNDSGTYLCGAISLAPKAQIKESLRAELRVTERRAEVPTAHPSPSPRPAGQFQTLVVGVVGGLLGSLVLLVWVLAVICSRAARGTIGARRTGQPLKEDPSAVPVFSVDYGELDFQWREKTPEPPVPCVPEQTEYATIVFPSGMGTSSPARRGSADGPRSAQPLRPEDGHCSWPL

Substance | ka (His-tagged human PD1) [M⁻¹ s⁻¹] | kd (His-tagged human PD1) [s⁻¹] | EC50 (NK92 cells) [pM]
LZM-009: anti-PD-1 antibody (VH SEQ ID NO: 376, VL SEQ ID NO: 377), unconjugated reference antibody [reference compound] | 342000 | 0.0077 | –
Composition B: immunocytokine: Atezolizumab/Tecentriq (anti-PD-L1) conjugated to IL-18 polypeptide SEQ ID NO: 30 | – | – | 1
